In a protein production outcome set (Wang et al. 2014):

Assay: label from the status in PepcDB records

**Q.** With “MSDIVLEVQSLHVYYGAIHAIKGIDLKVPRGQIVTLIGANGAGKTTTLSAIAGLVRAQKGKIIFNGQDITNKPAHVINRMGIALVPEGRRIFPELTVYENLMMGAYNRKDKEGIKRDLEWIFSLFPRLKERLKQLGGTLSGGEQQMLAIGRALMSRPKLLMMDEPSLGLAPILVSEVFEVIQKINQEGTTILLVEQNALGALKVAHYGYVLETGQIVLEGKASELLDNEMVRKAYLGVA” as the sequence, how does the protein production read?
**A.** The protein production was “not failed”.

**Q.** For “MSDLEVQVPTAFDPFADANAEDSGAGTKEYVHIRVQQRNGRKSLTTVQGLKKEYSYSKILKDLKKEFCCNGTVVQDSELGQVIQLQGDQRKNVSTFLVQAGLVKKDNIKIHGF”, which protein production is on record?
**A.** The protein production was “failed”.

**Q.** For “MSDLGAYIHAVETASSASALREAVIQLAQQNSTAAIPTLIAVLGYNNPAAAQAAVEGLIALGDAVVEPLLAQLDGYNYGARAYGVRVLGSIGHPAALQVLLAAAQSDFAPSVRRAATKALGTLRWQLIPEETVREAQLKEALAVLQRNSKAADWAVRYAVGVALDYLHQQAAARGIREAVRSLLNHLSDRDPDIVVRSRCQLALQRDSLSMHT”, which protein production is on record?
**A.** The protein production was “failed”.

**Q.** Which protein production does the source give for “MSDNSKTRVVVGMSGGVDSSVTALLLKEQGYDVIGIFMKNWDDTDENGVCTATEDYKDVVAVADQIGIPYYSVNFEKEYWDRVFEYFLAEYRAGRTPNPDVMCNKEIKFKAFLDYAITLGADYVATGHYARVARDEDGTVHMLRGVDNGKDQTYFLSQLSQEQLQKTMFPLGHLEKPEVRRLAEEAGLSTAKKKDSTGICFIGEKNFKNFLSNYLPAQPGRMMTVDGRDMGEHAGLMYYTIGQRGGLGIGGQHGGDNAPWFVVGKDLSKNILYVGQGFYHDSLMSTSLEASQVHFTREMPEEFTLECTAKFRYRQPDSKVTVHVKGEKTEVIFAEPQRAITPGQAVVFYDGEECLGGGLIDNAYRDGQVCQYI” here?
**A.** Its protein production is “not failed”.

**Q.** With “MSDSLHTPEEPRPGPGEQLAHAHDGSLRHTRAKGEPRFPDGPKADPAGSHFERRIRSFQPRRSRVTAGQADALQRLWPKWGLDIDGHALDLTELFGNTHPVVLEIGFGMGEATARMAAEDPDTGILAVDVHTPGQGNLLNLADQHGLTNIRVANGDAIILLREMLPPDSLDGLRVYFPDPWPKKRHHKRRLIQPEFLTLAATRLRPGALVHCATDWEPYAEQMLDVLTAHPDFENTQPTGGYAPRPGFRPLTRFEGQGLDKGHVVNDLLFRRVQPRDQHRDLPPSATEAD” as the sequence, how does the protein production read?
**A.** The protein production was “failed”.

**Q.** Which protein production does the source give for “MSDSWTERWNDRYSNEIFAYGEKPNNYLKAQLENLQPGTILFAAEGEGRNAVFAACLGWDVQAFDISSEGKKKAFQLAEKNQVTIAYQVGQLETLGYTAGQFDALALIYAHFPATVKSAYHRILSSYVRSGGYIIFEAFSKKHLDYLAKNEQVGGPKEFDMLFSIEEIKADFPDYEILELEEKEIELNEGQFHNGTGSVIRFTGRKKLEHHHHHH” here?
**A.** Its protein production is “failed”.

**Q.** For “MSDTPYSLKGPARPTASTRNGKGRQDARWAERRREAAIAKLKAELAAQAALIAGQEVALAHSRKIFDRASVAARIGVWECSLPGEQLHWTDVVYDLFDLPRGAALDRSEIIKCYPAESRKALDSLRSRAIAERSGFTLDAEITTFAGHSRWIRITATVECEADVPVRIFGMKQDITEEKILSDRMRYLAEFDPMTGLANRARFQARLAQPDASRPLGALLLIDLDGFKAVNDTFGHVVGDECLKAAAERLAEGCGEADLVARVGGDEFAVLLGSHLDRAAVSGVAREIIEGMGKPVVVRGQSLRLGASVGIAFAGQGAPCDLFAQADTALYAAKAAGRNTFRIFKAEAGGKDRSAAA”, which protein production is on record?
**A.** Its protein production is “failed”.

**Q.** For “MSDWPPKPQNEVQNSNNKTGQEWQILEKAVLASVEEQRRTRRWGIFFKFLTFLYLLFVFVLLGRGCTTSESSGGTSSSTAHLAVVNIIGTIDSSNQSVNSEDTNKALERAFEAKNSKAVALNINSPGGSPVQSDEIWQEIRYLKKQHPDKKVYAVIGDMGASGAYYIASAADEIIVNPSSLVGSIGVIMPNYGITGLAQKLGIEDRTLTSGSNKDILSMTKPVNPAQREHIQSVLDNVHAHFINAVKEGRGTRLKSNDPAIFSGLFWTGEQAIQLGVADRTGNLDTLMRELKVENKVNYTIERSPFESILGKMGSELGQGISQSVSQQLKTEQQAKLQ”, which protein production is on record?
**A.** The protein production was “failed”.

**Q.** For “MSDWQMAEAWTLEEAIANIQQTEDTGKRYYAAWWFGKFRVQDERAVNALLAALKDETDRSPDGGYPLRRNAAKALGKLGNLAAVQPLIESLESPDYYVRESAAQSLEMLGDRQAIPALQALLAGGVAAAVKAEGKPHLVQPYEAVIEALGTIGATAAIAEIEPFLDHEFAKIRYAALRALYQLTQEAHYAEQLMEALNGNQLQLRRSALLDLGAIGYVPAGQAIAKAYAENSLKLISLKGILESHLQRTAETLDADGLQLLELMDSLL”, which protein production is on record?
**A.** Its protein production is “failed”.

**Q.** With “MSEDKDMKNRNAMTIKRFVDVEEDGEHGGSGEFAELFQESIKQHRVGEVVTGKVVHISNEFVLVDIGYKSEGCIAIDEFLDEDGNLTVKVGDEVKALFERKENQKGYAVLSRRKAERLAVWDVIDEAGGEGGIIEGKITGKVKGGLTVDIGVQAFLPASQVDLRPGGNLDKYIGTTDRFKVLKLNKKRGNIVLSRRVLMEEERESSRKETLATLAEGQVREGVVKNITDYGAFVDIGGVDGLLHVTDMSWGRLGHPSEILKPGDKLNVKVLKYDQEKGKISLGLKQVTPDPWVSVEQKYNQGDRVKGKVVSLTDYGAFIALEDGVEGLVHVSEMSWTRRLRHPSEILTVGDEVETVVLGVDMGNRRISLGLKQVQVNPWTQLEEKYPVGTKLEGQIKSITDFGVFIGIEEGIDGLVHVSDISWTKRIKHPGEVFTKGQTVQAVVLNIDPENERLSLGIKQLLLDPWSEIPVKYRPGTRVHGKVTSVTDFGVFLEIEEGIEGLIHVSELSREKVASPKEFTNVGDELDAVVLSVDESEKKIALSIKSLQMAAEKAEIESYMQAQGEATSNLGELLKVGFRKNGDGNDLEHHHHHH” as the sequence, how does the protein production read?
**A.** The protein production was “failed”.

**Q.** Which protein production does the source give for “MSEENKIGTYQFVAEPFHVDFNGRLTMGVLGNHLLNCAGFHASDRGFGIATLNEDNYTWVLSRLAIELDEMPYQYEKFSVQTWVENVYRLFTDRNFAVIDKDGKKIGYARSVWAMINLNTRKPADLLALHGGSIVDYICDEPCPIEKPSRIKVTSNQPVATLTAKYSDIDINGHVNSIRYIEHILDLFPIELYQTKRIRRFEMAYVAESYFGDELSFFCDEVSENEFHVEVKKNGSEVVCRSKVIFE” here?
**A.** The protein production was “not failed”.

**Q.** With “MSEENRAVVSRMTEEDVRQLIKRKDDIEEQIKAYYDMLESQAGVGMDGPLVDVEGFPRADVDLYKVRTARHSISCLQNDHKAIMVEIEEALHKLHATARVTHEQDDTQMESSGQTVETPPPFALVDAVTHGSPAAQAGLHVGDQIMEFGSVNTQNFRNLRDIASVVQHSEGKSLRVGVFRNGQEVHLNLTPQQWSGRGLLGCNIVPLHR” as the sequence, how does the protein production read?
**A.** Its protein production is “failed”.

**Q.** With “MSEIEELVCIEASVTRKSTSNTVEIRESRRNKVTLGSSDSPAFPTPHLFLKNIVSFDEQSMYNLLYPRLQDPNLCSILSFKIAFEAKRVPGPLYISYDVTLTPQIFEEPDMETCGLCLLEEQHLFDMPNCAHVFHGDCIDKWLSTSNNCPLCGVEIMDDDE” as the sequence, how does the protein production read?
**A.** Its protein production is “failed”.

**Q.** With “MSEIILVTGAAGQLGQRVIHHLIETYKVAPGNIVAATRSPEKLSELEKKGVVTRKADFDDAAGLEKAFAGVDRLLIISTDALDTPGKRLAQHKGAVAAAVKSGVKHIAYTSMPGPDNSLVTFAPDHLGSENAIKASGIAHTIIRDAWYHDNYLHGMPHNLQGGKWYSATGDGKISTISRDDCALAIAAALASGTSESATYTVTGTQSLNSRQIAAIVSDVAGKPLEVIDVTDEQLGQGMRGAGLPGFVADMLVSADANTRAGKFDIVTEDFTKLTGKQPQPLKDFFVEHKATLTA” as the sequence, how does the protein production read?
**A.** The protein production was “failed”.

**Q.** For “MSEILRQPSVLLFLTLAVYALAIIVRTRTGNIFCNPVLVSTIVLIAYLKILGIDYAVYHNAAQFIDFRLKPAVVVLAVPLYQNRRKIFNQWLPVIVSQLAGSVTGIVTGMYFAKWLGAEREVVLPLASKSVTNPIAIEITRSIGGIPAITAATVIIAGLVGQIAGYKMLKNTVVMPSSVGMSLGTASHAMGIAASLERSRRMAAYAGMGLTFNGVLTALIAPLLIPVLGF”, which protein production is on record?
**A.** The protein production was “failed”.

**Q.** With “MSEKDFVQVAKLGKTVGLKGYVKLHNLSDFSSQFKKDATFFIKNTKEMLKIKHYNANNSTVLFENYEDIEKAKELTNLILFQSIEKSRQTCKLKKDEFFYFDILECEVFEEDKRLGKVVDILETGASYLFEIQSDEKWVEKKYPKIFFIPYLDKFVKNIDIEKRQIFCTQDAFLILENSLEHHHHHH” as the sequence, how does the protein production read?
**A.** Its protein production is “not failed”.

**Q.** Which protein production does the source give for “MSELILVRHGQATPFEKATDRLSALGEQQARAVGAALTAQGVRPTHVLHGSLVRQRRTAELAGEGQTGNEPGWPAPTLDPRLSEFDGDGLVTTLAPLLAQQDAEFGTLATTFREHRDSPERNRHFQRMLEALAAAWQAGTVTHPEVEGWADFRARVRAGLGDVLRLPAGTTAVLFTSGGVIGLAVALALDAPDASALKLNWRVKNGSLTRFTFGGGRLSLDSFNEEGHLTPELRSWR” here?
**A.** The protein production was “failed”.

**Q.** For “MSELPPREQPPRDQAISVAAISPERPDNHENDWTRRLVLFLRVMAVLSVAKGLYHWAQITGFVGGEDDAFEVQTMAWQTATIYFAVIELVAAVGLWLATPWGAVVWLTTVVSMAVIELMFPAIYGGSLLVVLGEALLLAAYLALAWMAARERPP”, which protein production is on record?
**A.** Its protein production is “failed”.

**Q.** Which protein production does the source give for “MSELRILRAVDYPRMPWKNGAGSTEEIARDGGDGLDGFGWRLSIADVGESGGFSGFAGYQRIISVLEGGGMRLRVDGAESAPLRARQAFAFSGDSEVHCTLLDGAIRDFNLIYAPRRHRARLQWLRVEGELDWHGTASTLLLFAQQDGVAISLQGQPRGQLAAHDCLCAEGLQGLQHWRLTAHEPAWVCAVELDSL” here?
**A.** The protein production was “not failed”.

**Q.** For “MSELVINNNIVNDLLIKQFTNYVFMMIVTDIKGNIIYANKKYCQFNHINFESIKNKRYNLFYLVDENQDVFSNISDNKEVIRLEAKNPNKNKQEVWEDINIVPIFDKNNLISHYAFLSLDITD”, which protein production is on record?
**A.** The protein production was “failed”.

**Q.** For “MSEPKKHKDAAVDDRAVQPSRRNFLKFGASGIAAATLSTWIPSDGMLQAAPVAPVLPVVEDRDAPAAGEHRIQLKVNGQVHTLNVPANAVLLDVLRDRLQLTGTKKGCDHGQCGACTLLVNGVAINSCLSIAVQHQGDSITTIEGLAENGKLHPVQEAFWEHDAYQCGYCTSGQIMSAVAILKDPNLGSDDASVREAMSGNICRCGAYKNILSAVQSARSKMGAV”, which protein production is on record?
**A.** Its protein production is “failed”.

**Q.** For “MSEQNWTDTGRFDNKAAEWDANAIRAALADAVARAIIAHMPVGKPANALEFGCGTGLVTTRIAPHCLQLTAVDSSREMLRMLGEKIAASAIANVTPLHLDFSRPEEAAGLDRDYDFVYSSMTLHHIPDTASFLRELIGHMSPGGALAIADLDAEDGLFHNDATEKVHHGFDRTELQALLESAGFAGVSFMTAHIIEKKNREGNLKNYPVFLVTAVKPKA”, which protein production is on record?
**A.** The protein production was “failed”.

**Q.** With “MSESAKVWLVTGASSGFGRAIAEAAVAAGDTVIGTARRTEALDDLVAAYPDRAEAISLDVTDGERIDVVAADVLARYGRVDVLVNNAGRTQVGAFEETTERELRDLFELHVFGPARLTRALLPQMRERGSGSVVNISSFGGQLSFAGFSAYSATKAALEQLSEGLADEVAPFGIKVLIVEPGAFRTNLFGKGAAYFSEENPAYAEKVGPTRQLVQGSDGSQPGDPAKAAAAIRLALDAEKTPLRLALGGDAVDFLTGHLDSVRAELTEWEKVSRGTDFDTE” as the sequence, how does the protein production read?
**A.** Its protein production is “not failed”.

**Q.** For “MSESIVTKIISIVQERQNMDDGAPVKTRDIADAAGLSIYQVRLYLEQLHDVGVLEKVNAGKGVPGLWRLLLEHHHHHH”, which protein production is on record?
**A.** Its protein production is “not failed”.
